Tested on: O=C(O)C(CO)OP(=O)(O)O
Assay: Enolase single enzyme assay: conversion of 2-phosphoglycerate to phosphoenolpyruvate, absorbance at 240 nm
Format: biochemical
Conditions: 7.7 mM KCl
Text: FIG. 7: Michaelis-Menten plot depicting the change in absorbance at 240 nm/minute as a function of the concentration of 2-phosphoglycerate (mM) as catalyzed by the plasmin binding protein. The change in absorbance is due to the conversion of 2-phosphoglycerate to phosphoenolpyruvate. Conditions as described in Example 1.
FIG. 8: Double-reciprocal plot depicting the change in the reciprocal of the absorbance at 240 nm/minute as a function of the reciprocal of the concentration of 2-phosphoglycerate (mM) as catalyzed by the plasmin binding protein. The change in absorbance is due to the conversion of 2-phosphoglycerate to phosphoenolpyruvate. Conditions as described in Example 1.
The molecular weight of the plasmin binding protein for one particular embodiment of the present invention has been determined to be approximately 45 kDa by SDS-PAGE.
(b) For the kinetic studies, the single enzyme assay was used, involving only the conversion of 2-phosphoglycerate to phosphoenolpyruvate by enolase. This simpler reaction avoids possible interactions of the effectors with the other enzymes. The reaction was performed at 30° C. in 100 mM HEPES buffer, pH 7.0, containing 10 mM MgSO4, 3.2 mM EDTA and 7.7 mM KCl and varying concentrations of 2-phosphoglycerate (0.19-7.5 mM). The change in absorbance/min was monitored at 240 nm. […] Michaelis-Menten and Lineweaver-Burke plots were drawn from the data obtained using 5 μg of SEN and varying concentrations of 2-phosphoglycerate (FIGS. 7 and 8). […] A concentration-dependent increase in the enolase activity was also found for the intact, washed streptococci (FIG. 5).

[1] = other: 0.1 M Hepes pH 7.0, 10 mM MgSO4, 3.2 mM EDTA, 30° C.
[2] = other: 30° C., 100 mM HEPES pH 7.0, 10 mM MgSO4, 3.2 mM EDTA, 5 μg SEN, 2-phosphoglycerate 0.19-7.5 mM, Michaelis-Menten and Lineweaver-Burke plots

“streptococcal surface enolase (SEN), 45 kDa plasmin binding protein purified from group A streptococci type M6 strain D471, N-terminal sequence SEQ ID NO: 1 (Streptococcus pyogenes MGAS10394)” was tested, and the Km [1] was 1500 µM, the Vmax [1] was 270 μmol per minute-mg protein and the Km [2] was 1500 µM. The Vmax [2] was 270 μmol per minute-mg protein.

From patent US6190659A, “Bacterial plasmin binding protein and methods of use thereof” (priority 1996, dated 2001)
